From the DeepSol protein solubility set

Test: soluble on expression in E. coli; label from the status in PepcDB or PDB records

Sequence	soluble on expression in E. coli
MGSDKIHHHHHHMKDWWQATFPNGRQTLIITDAKGYPVEISYGEKGKGKPLILLHGMGSWSYNWRHSVTELSKYFRVICFDAKGFGFSEKPLSRREHNGHQVIEFQRIIQALCDEPAVIVAESLGGLVALALAQENPQLIGQLVVVNVPVFAKRLPHWAMGLLAQTPLEIIQTIDSLRLAYFFAPLLREIMAIERRGVLFDPSILTKEDVYWITYPFIEFPGTLVKVAEELQIAAREIENWQADKPNMLTKIQNKLSIIKCPTLVLWGDQDSWFPATHGEKLHQHIPNSKLKILSNCYHDASTGASKELNAAILEFLRDGNTVLRSLDS	not soluble
MGSDKIHHHHHHMKESMSITSSTYASALLTLPWGTPLEQWPDNLIAALPRGISRHIVRFVGINRGIVAVKEIGARTAHHEYKMLRELQRLGAPSVRPVAVITGRHPAEEDYGELTAALVTEHLEFSLPYREIFSRHLTVVESEKLIRALSVLLVRMHLLNFYWGDVSLSNTLFRRDAETYSAYLVDAETGEFQPNLSESRRLYDVDIARVNIIGELMDLQAGECLDKSIDVIALGGLVESSYLELWTELTAEESVDASEYWRLSERIDRLNQLGFDVGELKVTKDDSRQVVRIRPVVVDPGHYRAELLSLTGLSVEEHQAQRLLGSIQAYQAVECGPHVGLTQAAHLWMTNEYEPTIAAVPVEMLDKLEPAQIFHEIVDHRWFLAQERGGAVTLPEATASYLESVLPARRDEARLLSTNPSDEDLS	not soluble
MGSDKIHHHHHHMKEYDKLSIRLVQILSKFNNGESLSAQELAQEFNVDTRTIQRDLNERLTFMPIKKENGRYVLESFALGKLSFKDIQNFATLSGIAELYPKLDQGFIVDLLSHRVNKVLMVKNEGFQKVDYELFKDLSVAILKHNVLNFFYKEKERQIKPYKLVNYKGIWYLLGDENDKLKHFNLDKISKLRTKNENFIPNEKLEEQIQNDPNIWLGESKEVILKLDKNAKEYFFRKEILSNYQIIDKDETSYTLSTQVSYEDEILHLVKQWIPYIKILAPIELKIRLEDILKSYLNNLSK	not soluble
MGSDKIHHHHHHMKFFNREKEINKILSIIEGEPNNIYFIYGSLNSGKSTLMREIVVNRLDISKYIPFFIDFRTRNILNVDNFIECLFEVDEKSEIDDFREYAKSLADLLVKGSEEISKYYLGMPIKIPKPFFDKIFNKKDKSADVYQYIEYLFAKLNEKGKKPILIFDELQMIKEITLNGNRKLLWSLFQFLVALTKVQHLCHVFCLSSDSLFIEYVYKTGELEGRADYILVDDFDKQTALKFIDFLAKEILNKKLPKDEKELIYSYVGGKPVLIIKVIDKLRYENLNDILDFMLKDATQKLKYFLNDLDYIKPKVEVGDEVIELKKEDIVKALKLFKDSYEISDSEVAKPIYVYLVKKNILFLNPIEGILKPQSFLIWNAIKRLL	not soluble
MGSDKIHHHHHHMKFNEFLNNLSNYEPGKDIEVIAKEYGVKEVIKLASNENPFGTPPKAIECLRQNANKAHLYPDDSMIELKSTLAQKYKVQNENIIIGAGSDQVIEFAIHSKLNSKNAFLQAGVTFAMYEIYAKQCGAKCYKTQSITHNLDEFKKLYETHKDEIKLIFLCLPNNPLGECLDASEATEFIKGVNEDCLVVIDAAYNEFASFKDSKKHLEPCELIKEFDNVLYLGTFSKLYGLGGLRIGYGIANANIISAFYKLRAPFNVSNLALKAAVAAMDDDEFTEKTLENNFSQMELYKEFAKKHNIKIIDSYTNFITYFFDEKNSTDLSEKLLKKGIIIRNLKSYGLNAIRITIGTSYENEKFFTEFDKILR	not soluble
MGSDKIHHHHHHMKHAFETLVGEVHAALQAGEQFTLGYSAEQSQFVRFNHAKVRQAGEVSQASAQLRLVRDGRQAEQQVTLSGDVQLDRQRLNVALEQLRQTLPLLALDPYLRLDENAWHSHSLQEPPLPALNEVLALLEREAGDLDLVGIYAAGPVCRGFASSFGAFGWHQANSFNVDWSLFHDNGQAVKANYAGQAWSADDFTARLRQAREQLGFLGRPAVTLKPGTYRAYLAPAAMDEVAGMLCWGGFSAQALATGNSALQRLYNGDARLSPLVSFTEQVSGSLSPAFSDEGAPRLDVPLIQQGEARQRLISARSAAEFELQANGADGYESPCALSLAPGNLASAQILERLGTGLYISNLWYLNYSDLPAARMTGLTRFATFWVEDGQIQGPVSTMRFDDSLYSLLGSQLEDLTQEREMILSTSTYGQRSTGSSHLPGALVKGLTLTL	not soluble
MGSDKIHHHHHHMKHYEAYGIATRNTKIQGQFYRLADEEVFIHHFEPLQKNNDIILLLHGYMDHSLTSARLINRLISEGFEVVALDWPGHGLSKGETYHIRSFRQYNTIFLQLVQDMIERWGSDRIHLIAHSTGAGVVLDGLTNNLKKMPTGGIVLTSPLIKLPSHRIGKLFLPFVRKWRKQVRRIYRTNSSDPLFMKAIEEDPLQHEVIPLTWFDAYLQWHEDMRRRAKCSAENVTILQGTRDTTVHWKANMKWLAETLPSAERILIDGGGHHLWNEGDLIRELVFRFILKRLKKT	not soluble
MGSDKIHHHHHHMKIAFDVDVIKDLGITRMVHQVAEWGYKYIEQSPHPQINPFYKHPRASREIMAEYKQALRDTGLELSSFICVYRWSGPDELRRQAAVKNWKRLVEIAVEMGVQVINTEFSGDPNQPEICDEMFYRSMEELLPIFEREGIRVEIQAHPWDFCEENNETVDIVKSFRSDNVKYVYSVPHTFFYDKGVGDVASMLRYAGSDLSHVLIADTRNHTKHCRYIVNPPGVDAVVHQHVGVGEGDVDFDALFRTLREMKFAEQTFKVGGAPIVATSLFGYPEKMKYQAVETRELIERELLRR	not soluble
MGSDKIHHHHHHMKIALDPYMIRHLPLDRLPHAVAELGYDQIELSPRSDFLDWWVMPRATRARMTAFRHALRASGVGLASLQPMYRWASPFEDERQWAVRCWKKAIEVATEMECALMVSEFGRGASPERSVGERPGANPKELCEAAWFRSMDELLPILERERIVLSVEPHPEDWIEQLQPAIDIVTNLGSPSLKLSYIAPHTFYYGDDMAAMIAQAAPILAHVRVADTFDHRKSSQLRYIVNPPGSNQIRVHQHLDIGQGEIDWDTFFRALGDAGFDGVMSSCVFAWEDRAEASSRYMRDTIQRYVDRHFDRAAAR	not soluble
MGSDKIHHHHHHMKIDVEAFRVLSILVEEGSFSKAAERLHKAQSAVSYQVKKLEQHLGVKLFCRDQYRAELTPEGKVILAEGKRLLQYLGNIEHLASRFSEGWEPKLELVVDGSLPMEPIMRALKRVSEHKIPTKIQLNMEFLGGVQHRFERDNADLMLVKDYRTGPNYRPQPLPDINSILVVSRSHPLAKAKELSLFELLQHVELTIEDSSPGKIHSDELQFGGDKVFYLSGFIMKKNALLMGLGFGWMPDFLIQEELASGELQELDFLGGSRYSFTPQLVSTMERPLGRAGRLFTSLILEEFNLYQAQASR	not soluble
MGSDKIHHHHHHMKIGIIGAGRVGCSIGKYLRTKDIELAGYYDVDSAAAKEAAEFTRTESFDSLKQLADQSQIIFITTPDSFIIPVWEQLKELSLTNQIICHCSGALSSDSFSGRESMSVSCCSIHPMLPFSNKFSSYEQLNKAFFTVEGQDAAVEAISGLFCSIGNEVCRIDGAKKAKYHAAASILSNQVIAVLDMGYSLLEDCGFTRAEAVRATGQLVMRNIENVLEAGCDGALTGPIERNDIETVKKHIACMQNDDSDDVRLYKMLGTKLVNIAEKKNPDKDYTQMMELLRG	not soluble
MGSDKIHHHHHHMKIILANPRGFCAGVDRAISIVELALEIHGAPIYVRHEVVHNRFVVDGLRDRGAIFVEELDEVPNGAIVIFSAHGVSQAVRQEAKERNLKVFDATCPLVTKVHMQVARASRKGTKAILIGHEGHPEVIGTMGQYDNDKGGIYLVEDVEDIAKLTLRNDEDITFMTQTTLSIDDTADVIEVLKQKYPAIQGPRKNDICYATTNRQQAVRELAELSDLVIVVGSKNSSNSNRLAELASRMGVTAKLIDDANDIEVSWLNNVKVIGLTAGASAPEILVQSVISRLKELGVDEVEELEGCEENTVFEVPKELRINKVE	not soluble
MGSDKIHHHHHHMKILIYGAGVLGSYAAYELKRVGHEVTILARSSRYEELKEKGLVIRHWFQRKTTKNKINVVKELLPEEYYDAVFIVMQSSQTNAILPVITANVKCPLFVFVGNQDKAKDISEKIKSTSKSNPRVLFGFFSIGGRREGGKVISVHTKHPDFDIGDLEGRDDYKIIIEKIFKETSFKLHYHVNMDDFFKTHIVVIMPLAYLAYMSNCDLRKIAWNRKALNAVIDAMIEGHEVLIKLGHKVDPESSERLLRNHRKVAYLGLKVCAMTPLGKLGISDHCKSGWREMEYLDKRLLEWAKKSNLETPNINKLREHLIKYVHKKVI	not soluble
